These results are taken from publication PMC9945957 (Proceedings of the National Academy of Sciences of the …, 2023).

A word on the stoichiometry N: it is the number of molecules, sites or subunits per partner or assembly.

The labels stand for the following.
T1: Shr^H1H2 (Shr residues S26 to Q285, both HIDs) (Streptococcus pyogenes, UniProt Q99YA0 26-285)
T1 sequence: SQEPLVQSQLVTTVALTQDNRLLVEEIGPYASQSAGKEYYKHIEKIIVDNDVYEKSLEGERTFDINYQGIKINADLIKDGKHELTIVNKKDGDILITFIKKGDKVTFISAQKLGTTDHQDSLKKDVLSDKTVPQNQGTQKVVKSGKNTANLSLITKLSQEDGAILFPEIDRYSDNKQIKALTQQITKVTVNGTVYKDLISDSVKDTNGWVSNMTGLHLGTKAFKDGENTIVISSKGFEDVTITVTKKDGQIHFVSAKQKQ

B1: human hemoglobin, heme-loaded (holo-Hb) (complex)
chain 1: not shown
chain 2: not shown
B2: Shr^H2 M238A (domain or fragment)
chain: NLSLITKLSQEDGAILFPEIDRYSDNKQIKALTQQITKVTVNGTVYKDLISDSVKDTNGWVSNATGLHLGTKAFKDGENTIVISSKGFEDVTITVTKKDGQIHFVSAKQKQ

For assay [1], the target named is T1, Shr^H1H2 (Shr residues S26 to Q285, …). In words: SEC-MALS + other: SEC-SAXS. In general terms: SEC sorts molecules by how far they enter the pores of the column.
Assay [2] addresses B1. In words: NMR titration.

In the case of B1, in assay [1], the “stoichiometry N” value was 2 Shr^H1H2 per Hb tetramer.

As to B2, in assay [2], the binding result was “binds”.
